US7460961B2, “N-TRADD active site and uses thereof” (Genetics Institute, LLC, priority 2000, dated 2008)

Biological target: T1, C-TRAF2 (residues 262 to 501 of human TRAF2) (Homo sapiens, UniProt Q12933)
T1 construct: C-TRAF2 (residues 262-501) was purified and coupled to a sensor chip CM5; initiator Met added before residue 262 (N); 6xHis (C); made in house; host or cells: baculovirus in 'Tini' cells (insect cells), vector pAcSG2
T1 sequence (Q12933 262-501): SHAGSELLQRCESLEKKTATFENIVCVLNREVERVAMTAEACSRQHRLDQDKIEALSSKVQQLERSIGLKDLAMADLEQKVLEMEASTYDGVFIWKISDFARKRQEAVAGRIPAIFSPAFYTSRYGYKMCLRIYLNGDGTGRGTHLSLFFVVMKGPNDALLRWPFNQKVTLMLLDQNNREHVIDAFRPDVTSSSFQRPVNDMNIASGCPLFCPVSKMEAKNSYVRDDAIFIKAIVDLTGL
Test: BIAcore surface plasmon resonance binding to immobilised C-TRAF2
Conditions: C-TRAF2 coupled to CM5 chip, read-out: Kd of the interaction between N-TRADD and C-TRAF2
Description: C-TRAF2 and N-TRADD binding studies: The affinity of wild-type N-TRADD and C-TRAF2 was measured by surface plasma resonance using a BIAcore 2000 system (Pharmacia Biosensor AB). C-TRAF2 (residues 262-501) was purified and coupled to a sensor chip CM5 by amine coupling at pH=5.0 to get about 800, 1500 and 5500 response units on three different flow cells. A constant flow (20 μL/min) of purified N-TRADD protein in 10 mM Hepes, pH=7.4, 150 mM NaCl, 3.4 mM EDTA and 0.05% P20 surfactant at 8 different concentrations from 650 μM to 84 μM was applied over the protein coupled chip for 2 min to analyze the association. Binding constants were obtained from the BIAevaluation software.
The ^1H-^15N HSQC of N-TRADD was used as a tool to map the binding interface with C-TRAF2, since the chemical shifts of contact residues will be perturbed upon complex formation. […] The C-TRAF2 (residues 262-501) used in the instant HSQC titration experiment (at 120 μM) is also a trimer, as determined by size exclusion chromatography. […] N-TRADD Mutagenesis and interactions between C-TRAF2 and N-TRADD: In order to further characterize the amino acids in N-TRADD that are involved in C-TRAF2 recognition, site directed mutants of N-TRADD were prepared and evaluated for their ability to bind C-TRAF2. […]
The affinity of N-TRADD mutants to C-TRAF2 was measured by BIAcore. […]

B1: N-TRADD: N-terminal domain (amino acid residues 1-169, SEQ ID NO:1) of human TNFR-1 associated death domain protein (protein)
chain: MAAGQNGHEWVGSAYLFVESSLDKVVLSDAYAHPQQKVAVYRALQAALAESGGSPDVLQMLKIHRSDPQLIVQLRFCGRQPCGRFLRAYREGALRAALQRSLAAALAQHSVPLQLELRAGAERLDALLADEERCLSCILAQQPDRLRDEELAELEDALRNLKCGSGAR
Kd: 6 µM
